Consider 1 substance from PMC12669755.

This test concerns the target 3xFLAG::mScarlet::WAGO-4 (UniProt O62275). The test can be described thus: in vitro phase separation (condensate partitioning, confocal fluorescence microscopy).

With “minimal P granules (condensates of PGL-1, PGL-3, GLH-1 and GLH-4 with poly-A+ mRNA), WT GLH-1 and GLH-4 (from UniProt Q9TZQ3;G5EBV6;P34689;O76743) GLH-1(F→A); GLH-4(F→A)”, the other: condensed / dilute phase mScarlet::WAGO-4 fluorescence ratio (second replicate, n = 36 ROIs, buffer-only negative control ratios in the same panel: WT 1.36, FG* 1.41, parent: 2.45) was determined as 2.09 and the other: condensed / dilute phase mScarlet::WAGO-4 fluorescence ratio (single experiment, n = 32-36 ROIs, buffer-only negative control ratios in the same panel: WT 1.36, FG* 1.32, parent: 3.04) stood at 2.53.
